Source: the Human Domainome abundance scans (Beltran et al. 2025)
± gives the uncertainty stated by the source.

B1: KAT8 regulatory NSL complex subunit 2, residues 28 to 91; numbered along this chain, Q9H9L4 (parent)
chain: CAFTHRPCSHPRLEGQEFCIKHILEDKNAPFKQCSYISTKNGKRCPNAAPKPEKKDGVSFCAEH

Variants of: B1
Assay: abundance fitness (aPCA) (normalised: wild type 0, dead -1); higher = more abundant; growth selection in yeast, the domain comes from the species named
Settings: Homo sapiens

H64K and H64N are within error of each other in abundance fitness: -0.509 ± 0.34 for the first, -0.441 ± 0.082 for the second.

Going from H64D to C61M, the abundance fitness falls from -0.324 ± 0.11 to -0.573 ± 0.067.

C61G and C61N are within error of each other in abundance fitness: -0.393 ± 0.041 for the first, -0.449 ± 0.079 for the second.

Going from C61V to C61W, the abundance fitness falls from -0.426 ± 0.053 to -0.667 ± 0.058.

First: C61F
Second: K43F
The abundance fitness of the first is lower: -0.722 ± 0.11 for the first, -0.172 ± 0.076 for the second.

K43M and K43V are within error of each other in abundance fitness: -0.203 ± 0.092 for the first, -0.074 ± 0.049 for the second.

K43G and K43R are within error of each other in abundance fitness: -0.144 ± 0.066 for the first, -0.055 ± 0.034 for the second.

K43E and K43P are within error of each other in abundance fitness: -0.044 ± 0.078 for the first, -0.072 ± 0.056 for the second.

E17G and E17R are within error of each other in abundance fitness: -0.252 ± 0.073 for the first, -0.216 ± 0.076 for the second.

E17Q and E17L are within error of each other in abundance fitness: -0.077 ± 0.073 for the first, -0.116 ± 0.046 for the second.

First: E17A
Second: E17I
The abundance fitness of the first is lower: -0.207 ± 0.07 for the first, -0.036 ± 0.079 for the second.

E17V and E17T are within error of each other in abundance fitness: -0.102 ± 0.052 for the first, -0.051 ± 0.054 for the second.

I37H and I37E are within error of each other in abundance fitness: 0.039 ± 0.15 for the first, -0.042 ± 0.095 for the second.

I37Y and I37P are within error of each other in abundance fitness: -0.137 ± 0.098 for the first, -0.142 ± 0.079 for the second.

I37N and I37S are within error of each other in abundance fitness: -0.042 ± 0.13 for the first, -0.061 ± 0.062 for the second.

I37D and E25S are within error of each other in abundance fitness: -0.302 ± 0.15 for the first, -0.111 ± 0.053 for the second.

E25I and E25W are within error of each other in abundance fitness: -0.171 ± 0.089 for the first, -0.131 ± 0.097 for the second.

Going from E25F to E25P, the abundance fitness falls from -0.065 ± 0.083 to -0.356 ± 0.073.

R44E and R44Q are within error of each other in abundance fitness: -0.139 ± 0.092 for the first, 0.005 ± 0.065 for the second.

R44C and R44G are within error of each other in abundance fitness: -0.026 ± 0.071 for the first, -0.027 ± 0.059 for the second.

R44K and R44W are within error of each other in abundance fitness: -0.071 ± 0.06 for the first, -0.112 ± 0.052 for the second.

S35G and S35L are within error of each other in abundance fitness: -0.047 ± 0.052 for the first, -0.14 ± 0.048 for the second.

S35D and S35T are within error of each other in abundance fitness: -0.057 ± 0.12 for the first, -0.104 ± 0.058 for the second.

S35H and S35N are within error of each other in abundance fitness: -0.333 ± 0.21 for the first, -0.117 ± 0.075 for the second.

S35F and S35Y are within error of each other in abundance fitness: -0.012 ± 0.069 for the first, -0.113 ± 0.1 for the second.

Going from S35C to K51Y, the abundance fitness falls from 0.003 ± 0.11 to -0.327 ± 0.094.

K51R and K51Q are within error of each other in abundance fitness: -0.087 ± 0.075 for the first, -0.217 ± 0.37 for the second.

K51P and K51V are within error of each other in abundance fitness: -0.109 ± 0.08 for the first, -0.035 ± 0.085 for the second.

K51S and H10T are within error of each other in abundance fitness: -0.105 ± 0.064 for the first, -0.11 ± 0.056 for the second.

H10M and H10C are within error of each other in abundance fitness: -0.047 ± 0.061 for the first, -0.015 ± 0.097 for the second.

H10D and H10F are within error of each other in abundance fitness: -0.28 ± 0.18 for the first, -0.076 ± 0.1 for the second.

H10L and Q16C are within error of each other in abundance fitness: -0.103 ± 0.047 for the first, -0.198 ± 0.065 for the second.

Q16K and Q16E are within error of each other in abundance fitness: -0.143 ± 0.1 for the first, -0.261 ± 0.078 for the second.

Q16R and Q16M are within error of each other in abundance fitness: -0.089 ± 0.044 for the first, -0.146 ± 0.11 for the second.

First: Q16Y
Second: T4L
The abundance fitness of the first is higher: -0.187 ± 0.17 for the first, -0.53 ± 0.055 for the second.

T4A and T4P are within error of each other in abundance fitness: -0.404 ± 0.064 for the first, -0.512 ± 0.083 for the second.

First: T4M
Second: T4W
The abundance fitness of the first is lower: -0.788 ± 0.072 for the first, -0.388 ± 0.1 for the second.

T4N and T4G are within error of each other in abundance fitness: -0.201 ± 0.3 for the first, -0.394 ± 0.082 for the second.

T4C and T4F are within error of each other in abundance fitness: -0.102 ± 0.2 for the first, -0.181 ± 0.14 for the second.

Compared with A62G, A62K is higher in abundance fitness: -0.078 ± 0.046 for the first, 0.095 ± 0.075 for the second.

A62P and A62L are within error of each other in abundance fitness: -0.065 ± 0.073 for the first, -0.087 ± 0.035 for the second.

A62E and A62Y are within error of each other in abundance fitness: -0.101 ± 0.078 for the first, -0.198 ± 0.085 for the second.

R6T and R6G are within error of each other in abundance fitness: -0.088 ± 0.066 for the first, -0.068 ± 0.055 for the second.

R6I and D56A are within error of each other in abundance fitness: -0.034 ± 0.079 for the first, -0.111 ± 0.085 for the second.

D56Y and D56C are within error of each other in abundance fitness: -0.148 ± 0.068 for the first, -0.067 ± 0.19 for the second.

D56Q and D56E are within error of each other in abundance fitness: -0.073 ± 0.098 for the first, -0.113 ± 0.21 for the second.

D56K and K32A are within error of each other in abundance fitness: 0.011 ± 0.32 for the first, -0.075 ± 0.061 for the second.

K32S and K32H are within error of each other in abundance fitness: -0.093 ± 0.054 for the first, -0.185 ± 0.085 for the second.

I23M and I23Q are within error of each other in abundance fitness: -0.204 ± 0.065 for the first, -0.136 ± 0.085 for the second.

I23L and I23Y are within error of each other in abundance fitness: -0.143 ± 0.042 for the first, -0.296 ± 0.15 for the second.

I23T and I23E are within error of each other in abundance fitness: -0.178 ± 0.078 for the first, -0.351 ± 0.1 for the second.

T39M and T39L are within error of each other in abundance fitness: -0.165 ± 0.083 for the first, -0.209 ± 0.072 for the second.

T39E and T39V are within error of each other in abundance fitness: 0.003 ± 0.33 for the first, -0.097 ± 0.082 for the second.

T39K and T39N are within error of each other in abundance fitness: -0.087 ± 0.13 for the first, -0.049 ± 0.061 for the second.

A29T and A29N are within error of each other in abundance fitness: -0.133 ± 0.084 for the first, -0.22 ± 0.15 for the second.

A29C and A29V are within error of each other in abundance fitness: -0.151 ± 0.083 for the first, -0.196 ± 0.047 for the second.

A29G and A29Q are within error of each other in abundance fitness: -0.128 ± 0.048 for the first, -0.278 ± 0.14 for the second.

A29P and A29Y are within error of each other in abundance fitness: -0.225 ± 0.058 for the first, -0.287 ± 0.1 for the second.

E14A and E14Q are within error of each other in abundance fitness: -0.107 ± 0.086 for the first, -0.155 ± 0.2 for the second.

Compared with E14S, E14W is lower in abundance fitness: -0.147 ± 0.059 for the first, -0.396 ± 0.088 for the second.

E14V and E14L are within error of each other in abundance fitness: -0.098 ± 0.054 for the first, -0.12 ± 0.05 for the second.

E14M and E14T are within error of each other in abundance fitness: -0.034 ± 0.12 for the first, -0.129 ± 0.051 for the second.

K40L and F3I are within error of each other in abundance fitness: 0.184 ± 0.32 for the first, 0.033 ± 0.13 for the second.

F3H and F3G are within error of each other in abundance fitness: -0.026 ± 0.086 for the first, -0.154 ± 0.064 for the second.

F3K and F3Y are within error of each other in abundance fitness: -0.287 ± 0.15 for the first, -0.151 ± 0.057 for the second.

K21L and K21E are within error of each other in abundance fitness: -0.127 ± 0.048 for the first, -0.085 ± 0.078 for the second.

K21Q and K21S are within error of each other in abundance fitness: -0.117 ± 0.16 for the first, -0.125 ± 0.053 for the second.

N41F and N41H are within error of each other in abundance fitness: -0.086 ± 0.099 for the first, -0.115 ± 0.097 for the second.

N41A and N41Q are within error of each other in abundance fitness: -0.058 ± 0.053 for the first, -0.098 ± 0.071 for the second.

N41M and N41R are within error of each other in abundance fitness: -0.079 ± 0.1 for the first, -0.06 ± 0.048 for the second.

G42Y and G42A are within error of each other in abundance fitness: -0.094 ± 0.072 for the first, -0.053 ± 0.06 for the second.

G42W and G42M are within error of each other in abundance fitness: -0.246 ± 0.083 for the first, -0.139 ± 0.087 for the second.

G42F and G15C are within error of each other in abundance fitness: -0.22 ± 0.097 for the first, -0.403 ± 0.14 for the second.

Compared with G15E, G15F is lower in abundance fitness: -0.219 ± 0.073 for the first, -0.406 ± 0.1 for the second.

G15A and G15Q are within error of each other in abundance fitness: -0.284 ± 0.064 for the first, -0.134 ± 0.11 for the second.

Going from C8P to C8L, the abundance fitness falls from -0.874 ± 0.086 to -1.31 ± 0.07.

C8E and C8K are within error of each other in abundance fitness: -0.711 ± 0.054 for the first, -0.664 ± 0.079 for the second.

P52W and P52V are within error of each other in abundance fitness: -0.053 ± 0.063 for the first, -0.083 ± 0.053 for the second.

P52Q and P52M are within error of each other in abundance fitness: -0.061 ± 0.078 for the first, -0.024 ± 0.07 for the second.

A2I and A2C are within error of each other in abundance fitness: -0.198 ± 0.13 for the first, -0.08 ± 0.093 for the second.

E63L and E63A are within error of each other in abundance fitness: -0.17 ± 0.047 for the first, -0.064 ± 0.063 for the second.

E63I and E63F are within error of each other in abundance fitness: -0.223 ± 0.1 for the first, -0.107 ± 0.079 for the second.

E63R and E63D are within error of each other in abundance fitness: -0.024 ± 0.047 for the first, 0.003 ± 0.06 for the second.

E63P gave an abundance fitness of -0.188 ± 0.091.
